In the Human Domainome abundance scans (Beltran et al. 2025) one finds abundance fitness data, which are given here for 39 variants.

± gives the uncertainty stated by the source.

The chains are these.
B1: POU domain, class 3, transcription factor 3, residues 320 to 388; numbered along this chain, P20264 (parent)
chain: DDLEQFAKQFKQRRIKLGFTQADVGLALGTLYGNVFSQTTICRFEALQLSFKNMCKLKPLLNKWLEEAD

The variants in this data set derive from B1. As to the kind of experiment: abundance fitness (aPCA) (normalised: wild type 0, dead -1); higher = more abundant; growth selection in yeast, the domain comes from the species named. The following applies: Homo sapiens.
Take DDLEQFAKQFKQRRIKLGFTQADVGLALGTLYGNVFSQTGICRFEALQLSFKNMCKLKPLLNKWLEEAD [T40G]: the abundance fitness was -0.92 ± 0.15. The same measure for DDLEQFAKQFKQRRIKLGFTQADVGLALGTLYGNVFSQTDICRFEALQLSFKNMCKLKPLLNKWLEEAD [T40D]: -0.393 ± 0.36. The result for DDLEQFAKQFKQRRIKLGFTQADVGLALGTLYGNVFSQTEICRFEALQLSFKNMCKLKPLLNKWLEEAD [T40E] reads -0.237 ± 0.11.

Take DDLEQFAKQFKQRRIKLGFTQADVGLALGTLYGNVFSQTYICRFEALQLSFKNMCKLKPLLNKWLEEAD [T40Y]: the abundance fitness is -0.59 ± 0.25. The result for DDLEQFAKQFKQRRIKLGFTQADVGLALGTLYGNVFSQTRICRFEALQLSFKNMCKLKPLLNKWLEEAD [T40R] reads -0.583 ± 0.086; that for DDLEQFAKQFKQRRIKLGFTQADVGLALGTLYGNVFSQTPICRFEALQLSFKNMCKLKPLLNKWLEEAD [T40P], -0.704 ± 0.46; that for DDLEQFAKQFKQRRIKLGFTQADVGLALGTLYGNVFSQTNICRFEALQLSFKNMCKLKPLLNKWLEEAD [T40N], -0.734 ± 0.32. The result for DDLEQFAKQFKQRRIKLGFTQADVGLALGTLYGNVFSQTCICRFEALQLSFKNMCKLKPLLNKWLEEAD [T40C] reads -0.615 ± 0.16. The same measure for DDLEQFAKQFKQRRIKLGFTQADVGLALGTLYGNVFSQTIICRFEALQLSFKNMCKLKPLLNKWLEEAD [T40I]: -0.553 ± 0.22; for DDLEQFAKQFKQRRIKLGFTQADVGLALGTLYGNVFSQTAICRFEALQLSFKNMCKLKPLLNKWLEEAD [T40A]: -0.386 ± 0.1; for DDLEQFAKQFKQRRIKLGFTQADVGLALGTLYGNVFSQTHICRFEALQLSFKNMCKLKPLLNKWLEEAD [T40H]: -0.778 ± 0.4. Consider DDLEQFAKQFKQRRIKLGFTQADVGLALGTLYGNVFSQTWICRFEALQLSFKNMCKLKPLLNKWLEEAD [T40W], for which the abundance fitness is -0.441 ± 0.12. The same measure for DDLEQFAKQFKQRRIKLGFTQADVGLALGTLYGNVFSQTVICRFEALQLSFKNMCKLKPLLNKWLEEAD [T40V]: -0.174 ± 0.088; for DDLEQFAKQFKQRRIKLGFTQADVGLALGTLYGNVFSQTQICRFEALQLSFKNMCKLKPLLNKWLEEAD [T40Q]: -0.102 ± 0.078; for DDLEQFAKQFKQRRIKLGFTQADVGLALGTLYGNVFSQTSICRFEALQLSFKNMCKLKPLLNKWLEEAD [T40S]: -0.49 ± 0.11.

With DDLEQFAKQFKQRRIKLGFTQADVGLALGTLYGNVFSQTKICRFEALQLSFKNMCKLKPLLNKWLEEAD [T40K], the abundance fitness is -0.179 ± 0.097. The same measure for DDLEQFAKQFKQRRIKLGFTQADVGLALGTLYGNVFSQMTICRFEALQLSFKNMCKLKPLLNKWLEEAD [T39M]: -0.502 ± 0.13; for DDLEQFAKQFKQRRIKLGFTQADVGLALGTLYGNVFSQQTICRFEALQLSFKNMCKLKPLLNKWLEEAD [T39Q]: -0.077 ± 0.13; for DDLEQFAKQFKQRRIKLGFTQADVGLALGTLYGNVFSQHTICRFEALQLSFKNMCKLKPLLNKWLEEAD [T39H]: 0.074 ± 0.39. The same measure for DDLEQFAKQFKQRRIKLGFTQADVGLALGTLYGNVFSQDTICRFEALQLSFKNMCKLKPLLNKWLEEAD [T39D]: 0.014 ± 0.2; for DDLEQFAKQFKQRRIKLGFTQADVGLALGTLYGNVFSQATICRFEALQLSFKNMCKLKPLLNKWLEEAD [T39A]: -0.011 ± 0.085. The result for DDLEQFAKQFKQRRIKLGFTQADVGLALGTLYGNVFSQETICRFEALQLSFKNMCKLKPLLNKWLEEAD [T39E] reads 0.11 ± 0.11; that for DDLEQFAKQFKQRRIKLGFTQADVGLALGTLYGNVFSQRTICRFEALQLSFKNMCKLKPLLNKWLEEAD [T39R], -0.058 ± 0.07.

As for DDLEQFAKQFKQRRIKLGFTQADVGLALGTLYGNVFSQKTICRFEALQLSFKNMCKLKPLLNKWLEEAD [T39K], the abundance fitness was -0.006 ± 0.18. The same measure for DDLEQFAKQFKQRRIKLGFTQADVGLALGTLYGNVFSQYTICRFEALQLSFKNMCKLKPLLNKWLEEAD [T39Y]: -0.769 ± 0.33; for DDLEQFAKQFKQRRIKLGFTQADVGLALGTLYGNVFSQPTICRFEALQLSFKNMCKLKPLLNKWLEEAD [T39P]: -0.579 ± 0.18. The result for DDLEQFAKQFKQRRIKLGFTQADVGLALGTLYGNVFSQLTICRFEALQLSFKNMCKLKPLLNKWLEEAD [T39L] reads -0.195 ± 0.086; that for DDLEQFAKQFKQRRIKLGFTQADVGLALGTLYGNVFSQFTICRFEALQLSFKNMCKLKPLLNKWLEEAD [T39F], -0.509 ± 0.32; that for DDLEQFAKQFKQRRIKLGFTQADVGLALGTLYGNVFSQITICRFEALQLSFKNMCKLKPLLNKWLEEAD [T39I], -0.157 ± 0.14. For the variant DDLEQFAKQFKQRRIKLGFTQADVGLALGTLYGNVFSQGTICRFEALQLSFKNMCKLKPLLNKWLEEAD [T39G], the abundance fitness is -0.215 ± 0.083. With DDLEQFAKQFKQRRIKLGFTQADVGLALGTLYGNVFSQSTICRFEALQLSFKNMCKLKPLLNKWLEEAD [T39S], the abundance fitness is -0.099 ± 0.095.

Take DDLEQFAKQFKQRRIKLGFTQADVGLALGTLYGNVFSQWTICRFEALQLSFKNMCKLKPLLNKWLEEAD [T39W]: the abundance fitness is -0.846 ± 0.23.

As for DDLEQFAKQFKQRRIKLGFTQADVGLALGTLYGNVFSQTTIWRFEALQLSFKNMCKLKPLLNKWLEEAD [C42W], the abundance fitness was -0.38 ± 0.078.

Take DDLEQFAKQFKQRRIKLGFTQADVGLALGTLYGNVFSQTTIYRFEALQLSFKNMCKLKPLLNKWLEEAD [C42Y]: the abundance fitness is 0.055 ± 0.11. The result for DDLEQFAKQFKQRRIKLGFTQADVGLALGTLYGNVFSQTTIMRFEALQLSFKNMCKLKPLLNKWLEEAD [C42M] reads -0.284 ± 0.12; that for DDLEQFAKQFKQRRIKLGFTQADVGLALGTLYGNVFSQTTIKRFEALQLSFKNMCKLKPLLNKWLEEAD [C42K], 0.13 ± 0.099. The result for DDLEQFAKQFKQRRIKLGFTQADVGLALGTLYGNVFSQTTIDRFEALQLSFKNMCKLKPLLNKWLEEAD [C42D] reads 0.032 ± 0.11; that for DDLEQFAKQFKQRRIKLGFTQADVGLALGTLYGNVFSQTTIQRFEALQLSFKNMCKLKPLLNKWLEEAD [C42Q], 0.06 ± 0.081. The same measure for DDLEQFAKQFKQRRIKLGFTQADVGLALGTLYGNVFSQTTILRFEALQLSFKNMCKLKPLLNKWLEEAD [C42L]: -0.193 ± 0.07.
